Experiments:
[1] = test system: CALU-6 cells (human lung carcinoma); experiment: Human non-small cell lung cancer (CALU-6) xenograft model, tumor growth; type: in vivo, Swiss Nude mice; design: Growth inhibition based on T/C ratio, T/C ratio (%): concentration or dose not given beside the values; details: for MTV (mean tumor volume): IP Q2DX8, 168A-T2 15 mg/kg, CDDP 5 mg/kg; for MRTV (mean relative tumor volume): ratio of MTV at time t to volume at D12; for Growth inhibition based on T/C ratio, T/C ratio (%): versus vehicle group 1
Procedure: CALU-6 cells were cultured as adherent cells in complete EMEM medium (Ref. CM1MEM18-01, batch No. 462502, Eurobio, France) 10% fetal calf serum (FCS; Ref. CVFSVF00-01, batch No. S13021, Eurobio, France) under a 37° C., 5% CO2 humidified atmosphere. They were amplified in 75 cm^2-flasks to reach 90×10^6 cells.
At D0, CALU-6 cells (human lung carcinoma) were collected from 75 cm^2-flasks by removing the medium and adding 3 ml of trypsine-EDTA (Ref. CEZTDA00-0U, batch No. 633920, Eurobio, France). After 5 min of incubation at 37° C., cells had detached from the plastic and the enzymatic reaction was stopped by adding 3 ml of EMEM medium containing 10% fetal calf serum. Cells were then centrifuged at 700 g for 5 min at room temperature. They were resuspended in serum-free EMEM culture medium. Cells were counted and viability assessment by Trypan Blue exclusion (Ref. CSTCOL03-0U, batch No. 434511, Eurobio, France). The number of viable CALU-6 cells was >99%. The number of cells was then adjusted to 25×10^6 cells/ml in serum-free medium.
Thirty healthy female Swiss Nude mice were anesthetized by IP injection of Ketamine-Xylazine (80 mg/kg-12 mg/kg; Ref. K-113, Sigma, France). CALU-6 cells 5×10^6 cells/mouse in 200 μl of serum-free medium) were then implanted subcutaneously in the right flank of each mouse.
At D12 post-implantation of the CALU-6 cells, the thirty mice were randomized into […]. Tumor volumes had reached 54 to 296 mm^3 and mean tumor volumes were not statistically different between groups after randomization.
Injections in groups 1, 2, 3 and 4 were performed according to the schedules Q2DX8, i.e. 1 quantity every two days, eight times.
Ketamine/Xylazine (80 mg/kg-12 mg/kg; Ref. K-113, Sigma, France) was used to anaesthetize the animals before sacrifice by cervical dislocation. For all animals, the tumor size was measured twice a week with calipers. The tumor volume (mm^3) was measured according to the formula: (length×width^2)/2.
• Tumor growth curves were drawn using the mean tumor volumes (MTV), • Mean Relative tumor volume (MRTV) was calculated as the ratio between the MTV at time t and the volume at the time of injection (t=D12), • Tumor growth inhibition (T/C, %) was evaluated as the ratio of the median tumor volumes of treated groups versus vehicle group.
Statistical analyses of tumor volumes (TV), time to reach ‘TV’, tumor-doubling time (DT), relative tumor volume (RTV) and tumor growth inhibition (T/C) were performed for all groups. Data are expressed as mean±SD. Groups of data were normally distributed. Univariate analysis were performed to assess differences between groups. Statistical significance was then determined using the Student's t test. A P<0.05 was considered as statistically significant. The Statistical analysis was performed using XLSTAT (Addinsoft, France).

lung cancer line (Calu6) = experiment: Inhibition of lung cancer cell line proliferation in vitro (MTT); type: cell-based, human; details: 48 hours, maximum over tested concentrations
Procedure: (§1) BizX cell preparation of 50000 cells/mL was prepared in complete medium. In a 96 wells plate, […] of the cell preparation was distributed in each well and then incubated with different concentrations of 168A-T2 (each concentration was tested in triplicate). After 48 hours of incubation at 37° C., […] of MTT ([…] in water) were added in each well. After 3 hours of incubation at 37° C., the culture medium was eliminated and […] of DMSO were added to solubilize MMT crystals. The optical density (OD) at 570 nm was then measured using μQuant micro-plate reader (Bio-Tek Instrument gmbh, Colmar, France) coupled to the KC4 (Bio-Tek) software. The OD was corrected by subtracting blank-well OD values (the OD values obtained from wells without cells), and the inhibition of cell proliferation was measured relative to control (OD obtained from wells with untreated kidney tumor cells representing the maximal proliferative response, i.e. 100%).
Calu6 cells were cultured and treated as described in example 5.

HUVEC cells = experiment: Inhibition of endothelial cell proliferation in vitro (MTT); type: cell-based, human; details: comparison with literature (Binetruy-Tournaire et al.)
Procedure: HUVEC cells were cultured to confluency in complete EGM2-MV medium (Cambrex) at 37° C. and in 5% CO2 humidified atmosphere. Cells were then collected by trypsine-EDTA digestion (Versene, Eurobio). After 5 min, the enzymatic reaction was stopped by adding 3 ml of the culture medium containing 5% FCS. Cells were then centrifuged at 220 g for 10 min at room temperature, washed twice with 5 ml of culture medium, suspended in complete culture medium, counted and adjusted to 50 000 cells/ml. One hundred μL per well were then distributed to a 96-well cell culture grade micro-plate (5 000 cells/well) and incubated with different concentrations of the purified protein 168A-T2 in Tris-HCl 20 mM buffer (pH 8), containing 150 mM NaCl and urea 2M; this buffer was used as control.
After 42 hrs at 37° C., cell proliferation was measured using thiazolyl blue tetrazolium bromide (MTT) method. Briefly, MTT (Sigma) was dissolved in PBS at 5 mg/ml, the solution was filtered (0.22 μm) and 10 μl were added to each well of the 96-well micro-plates. […] The optical density (OD) at 570 nm was then measured using μQuant micro-plate reader (Bio-Tek Instrument gmbh, Colmar, France) coupled to the KC4 (Bio-Tek) software. […]

HUVEC [2] = experiment: Migration of human endothelial cells (wound assay); type: cell-based; details: 12, 17, 23 μg/mL (0.7, 1, 1.35 μM); 18 hours
Procedure: Cell migration was tested by the wound assay described by Sato and Rifkin (J Cell Biol. 1988; 107:1199) with few modifications. HUVEC grown in growth medium EGM-2MV (Cambrex) were seeded in 24-well plates at 80 000 cells per well in 500 μL of growth medium and grown to confluence at 37° C. in a humidified atmosphere containing 5% CO2. Cells were scrapped with a plastic tip on one line only. After wounding, the culture medium was changed for fresh medium (control, FIG. 3a) or fresh medium supplemented with: • FIG. 3b: 168A-T2 12 μg/mL (0.7 μM) • FIG. 3c: 168A-T2 17 μg/mL (1 μM) • FIG. 3d: […] 23 μg/mL (1.35 μM)
After 18 hours of culture, cells were observed and photographed under the inverted microscope (Analysis, Olympus, Rungis, France).

[3] = test system: kidney cancer line (BizX); experiment: Inhibition of kidney cancer cell line proliferation in vitro (MTT); type: cell-based; details: 48 hours, maximum over tested concentrations
Procedure: as §1

HUVEC [4] = experiment: In vitro angiogenesis of HUVEC induced by FGF2 and VEGF on Matrigel; type: cell-based, human; details: 3.5, 6.9, 13.6 μg/mL (0.2, 0.4, 0.8 μM)
Procedure: The purified proteins 168A-T2 was tested in vitro on angiogenesis of HUVEC induced by FGF2 and VEGF on Matrigel.
24 wells plates were prepared with 250 μL of BD Matrigel™/well and then incubated 30 minutes in incubator. HUVEC cells were then prepared as described in example 2 and 70 000 cells (in 0.5 mL) were seeded per well and incubated with different concentrations of the purified protein 168A-T2, in Tris-HCl 20 mM buffer (pH 8), containing 150 mM NaCl and urea 2M; this buffer was used as control: • FIG. 2a: Control (Buffer Urea 2M) • FIG. 2b: 168A-T2 3.5 μg/mL (0.2 μM) • FIG. 2c: 168A-T2 6.9 μg/mL (0.4 μM) • FIG. 2d: 168A-T2 13.6 μg/mL (0.8 μM)

With `N.N.[Cl][Pt][Cl]` [Cisplatin, cis-diamineplatinum(II) dichloride, reference compound] the “MTV (mean tumor volume)” value ([1]; D12 (start of treatment)) was 142.60 mm^3, the “MTV (mean tumor volume)” value ([1]; D14) was 351.15 mm^3 and the “MTV (mean tumor volume)” value ([1]; D16) was 291.29 mm^3. For the same molecule, the “MTV (mean tumor volume)” value ([1]; D18) was 329.18 mm^3, the “MTV (mean tumor volume)” value ([1]; D20) was 386.84 mm^3 and the “MTV (mean tumor volume)” value ([1]; D22) was 470.59 mm^3. The “MTV (mean tumor volume)” value ([1]; D24) was 595.00 mm^3, the “MTV (mean tumor volume)” value ([1]; D26) was 527.98 mm^3 and the “MTV (mean tumor volume)” value ([1]; D28) was 742.44 mm^3.

B1: 168A-T2: fragment of the extracellular domain of protein 168A, SEQ ID NO:4 (108 amino acids), recombinant from E. coli, 18 kD (protein, listed as Homo sapiens)
chain: MAFDVSWFAVHSFGLDKAPVLLSSLDRKGIVTTSRRDWKSDLSLERVSVLEFLLQVHGSEDQDFGNYYCSVTPWVKSPTGSWQKEAEIHSKPVFITVKMDVLNAFKYP
B1 was tested, and the “inhibition of proliferation of lung cancer line (Calu6)” value (lung cancer line (Calu6)) was “up to 40%”, the “MRTV (mean relative tumor volume)” value ([1]; D12 (reference time)) was 1 and the “MTV (mean tumor volume)” value ([1]; D12 (start of treatment)) was 159.22 mm^3. For the same molecule, the “MTV (mean tumor volume)” value ([1]; D14) was 181.94 mm^3, the “MRTV (mean relative tumor volume)” value ([1]; D14) was 1.15 and the “Growth inhibition based on T/C ratio, T/C ratio (%)” value ([1]; D14) was 37%. The “MTV (mean tumor volume)” value ([1]; D16) was 264.20 mm^3, the “MRTV (mean relative tumor volume)” value ([1]; D16) was 1.93 and the “Growth inhibition based on T/C ratio, T/C ratio (%)” value ([1]; D16) was 39%. For the same molecule, the “MTV (mean tumor volume)” value ([1]; D18) was 322.99 mm^3, the “MRTV (mean relative tumor volume)” value ([1]; D18) was 2.08 and the “Growth inhibition based on T/C ratio, T/C ratio (%)” value ([1]; D18) was 17%. For the same molecule, the “MTV (mean tumor volume)” value ([1]; D20) was 391.90 mm^3, the “MRTV (mean relative tumor volume)” value ([1]; D20) was 2.60 and the “Growth inhibition based on T/C ratio, T/C ratio (%)” value ([1]; D20) was 29%. For the same molecule, the “MTV (mean tumor volume)” value ([1]; D22) was 485.42 mm^3, the “MRTV (mean relative tumor volume)” value ([1]; D22) was 3.47 and the “Growth inhibition based on T/C ratio, T/C ratio (%)” value ([1]; D22) was 16%. The “MTV (mean tumor volume)” value ([1]; D24) was 642.24 mm^3, the “MRTV (mean relative tumor volume)” value ([1]; D24) was 4.83 and the “Growth inhibition based on T/C ratio, T/C ratio (%)” value ([1]; D24) was 15%. The “MTV (mean tumor volume)” value ([1]; D26) was 529.95 mm^3, the “MRTV (mean relative tumor volume)” value ([1]; D26) was 4.14 and the “Growth inhibition based on T/C ratio, T/C ratio (%)” value ([1]; D26) was 45%. For the same molecule, the “MTV (mean tumor volume)” value ([1]; D28) was 615.96 mm^3, the “MRTV (mean relative tumor volume)” value ([1]; D28) was 4.51 and the “Growth inhibition based on T/C ratio, T/C ratio (%)” value ([1]; D28) was 45%. The “potency relative to anti-VEGF mAb and/or VEGF receptor (KDR)-based identified peptides” value (HUVEC cells) was “at least 600 fold”, the “inhibition of human endothelial cell migration” value (HUVEC [2]) was “inhibited human endothelial cells migration in a dose dependent manner” and the “inhibition of proliferation of kidney cancer line (BizX)” value [3] was “up to 20%”. For the same molecule, the “inhibition of in vitro angiogenesis (capillary tube formation)” value (HUVEC [4]) was “inhibited in vitro angiogenesis in a dose-dependent manner”.

From US9539306B2, “Anti-tumor drug, medicament, composition, and use thereof” (GENE SIGNAL INTERNATIONAL SA, priority 2007, dated 2017)
